Test [1] has as its target T1, pTyr-containing peptide (pEZ) derived from Ezrin, PPV{pTyr}EPVS (also: N-terminal fluorescein (FP) or biotin via two aminocaproic acids (ELISA)).
T1 peptide: PPV[pY]EPVS
Put plainly: competition binding.

In test [2] the target is T1, pTyr-containing peptide (pEZ) derived …. Kind of test: competition binding.
The target in test [3] is T2, Phosphopeptide KQVE{pTyr}LDLDLD.
T2 peptide: {Biotin-Ahx-Ahx}-KQVE[pY]LDLDLD
Kind of test: competition binding.

Test [4] deals with T3, pMT peptide EEPQ{pTyr}EEIPIY.
T3 peptide: {Biotin-Ahx-Ahx}-EEPQ[pY]EEIPIY
Kind of test: competition binding.

Test [5] shares this target. Kind of test: competition binding.
In test [6] the target is T4, Phosphopeptide PPPT{pTyr}TEVDP.
T4 peptide: {Biotin-Ahx-Ahx}-PPPT[pY]TEVDP
Put plainly: competition.

The target of test [7] is T5, Phosphopeptide QGVI{pTyr}SDLNLP.
T5 peptide: {Biotin-Ahx-Ahx}-QGVI[pY]SDLNLP
Kind of test: competition binding.

Read-outs that look alike come from different tables or passages of the source. Where no end group is shown, it is not given here. [ ]: non-standard residue; d: D form. The star is where a group is joined. Biotin = O=C1N[C@H]2[C@H](CS[C@H]2CCCCC(=O)*)N1; pY = N[C@@H](Cc1ccc(OP(=O)(O)O)cc1)C(=O)O; Ahx = NCCCCCC(=O)O

As usually defined, the IC50 is the concentration at which inhibition is half-maximal. A lower IC50 goes with inhibition by little substance.

B1: Fes^sSrc, Fes SH2 domain with the sSrc superbinder motif grafted (designed binder)
chain: MKIEEHHHHHHSSGKLGLNDIFEAQKIEWHESSGEDLYFQSGTTMDDYKDDDDKGGSEVQKPLHEQLWYHGAIPRAEVAELLVHSGDFLVRESETVKGAYALSVLWDGLPRHFLIQSLDNLYRLEGEGFPSIPLLIDHLLSTQQPLTKKSGVVLHRAVPSR
Turning to B1, the results for the IC50 in test [1] and in test [2] were 42 nM and 70 nM, respectively.

B2: Ptn11_N^G-αA2-R sFes (protein)
chain: MKIEEHHHHHHSSGKLGLNDIFEAQKIEWHESSGEDLYFQSGTTMDDYKDDDDKGGSGSMTSRRWFHPNITRVEAENLLLTRGVDGSFLARPGQSQPDFVLSVRRNGAVTHIIIQNTGDYYDLYGGEKFATLAELVQYYMEHHGQLKEKNGDVIELKYPLNCADSR
In test [3], B2 came in with an IC50 of 74 nM.

B3: Src^sFes, Src SH2 domain with the sFes superbinder motif grafted (designed binder)
chain: MKIEEHHHHHHSSGKLGLNDIFEAQKIEWHESSGEDLYFQSGTTMDDYKDDDDKGGSDGIQAEEWYFGKITRRESERLLLNAENPRGTFLVREGQSQPDYVLSVSDFDNAKGLNVKHYIIRKLDSGGFYITSRTQFNSLQQLVAYYSKHADGLCHRLTTVCPSR
Turning to B3, the IC50 came out at 4.3 nM in test [4] and 21 nM in test [5].

B4: Ptn11_C^G-αA2-R sSrc (protein)
chain: MKIEEHHHHHHSSGKLGLNDIFEAQKIEWHESSGEDLYFQSGTTMDDYKDDDDKGSLNCADPTSERWFHGHLSRKEAEKLLTEKGKHGSFLVRESETVKGAFALSVRTGDDKGESNDGKSKVTHVLIRCQELKYDVGGGERFDSLTDLVEHYKKNPMVETLGTVLQLKQPLNTTRINAADSR
Take B4: the IC50 in test [6] worked out at 1900 nM.

B5: sFes^1 (SuperFes), superbinder Fes SH2 domain variant (designed binder)
chain: MKIEEHHHHHHSSGKLGLNDIFEAQKIEWHESSGEDLYFQSGTTMDDYKDDDDKGGSEVQKPLHEQLWYHGAIPRAEVAELLVHSGDFLVREGQSQPDYVLSVLWDGLPRHFIIQSLDNLYRLEGEGFPSIPLLIDHLLSTQQPLTKKSGVVLHRAVPSR
Take B5: the results for the IC50 in test [1] and in test [2] were 1.6 nM and 4 nM, respectively.

B6: Ptn6_C^G-αA2-R sFes (protein)
chain: MKIEEHHHHHHSSGKLGLNDIFEAQKIEWHESSGEDLYFQSGTTMDDYKDDDDKGSLNCSDPTSERWYHGHMSRGQAETLLQAKGEPWTFLVREGQSQPDFVLSVLSDQPKAGPGSPLRVTHIIVMCEGGRYTVGGLETFDSLTDLVEHFKKTGIEEASGAFVYLRQPYYATRVNAADSR
In test [7], B6 displayed an IC50 of 900 nM.

B7: Ptn11_N^G-αA2-R sSrc (protein)
chain: MKIEEHHHHHHSSGKLGLNDIFEAQKIEWHESSGEDLYFQSGTTMDDYKDDDDKGGSGSMTSRRWFHPNITRVEAENLLLTRGVDGSFLARPSETVKGAFALSVRRNGAVTHILIQNTGDYYDLYGGEKFATLAELVQYYMEHHGQLKEKNGDVIELKYPLNCADSR
Take B7: the IC50 in test [3] is 17 nM.

B8: Fes SH2 domain, wild type (Fes^wt) (other)
chain: WYHGAIPRAEVAELLVHSGDFLVRESQGKQEYVLSVLWDGLPRHFIIQSLDNLYRLEGEGFPSIPLLIDHLLSTQQPLTKKSGVVLHRAV
Take B8: the IC50 is 4600 nM in test [1] and 6000 nM in test [2].
